In assay [1] the target is apelin 13 (competition peptide 1-13, …). Nature of the assay: cell-based or functional assay.
For a further assay, the target named is T1, pyro-apelin 13 (N-terminal pyroglutamate).
T1 peptide: ERPRLSHKGPMPF
Nature of the assay: cell-based or functional assay.

The target of assay [2] is T2, biotin-apelin-13 (biotin-…) (N-terminal biotin).
T2 construct: also called Biotin-APL13
Nature of the assay: SPR (Biacore) with biotin-apelin-13, humanized IgG1 mAb in HEK293 supernatant. An excerpt: The rabbit anti-apelin mAb C8 was humanized to reduce the potential of immunogenicity when used in human patients. The sequences of the variable regions of the heavy and light chains (VH and VL) were compared with the human antibody sequences in the Protein Data Bank (PDB) database and a homology model was built by applying SWISS-modeling. The CDRs in both the heavy and light chains of the rabbit mAb were grafted into human frameworks that have the highest possibility of maintaining the proper structure likely required for antigen binding. Backmutations from human residue to rabbit residue were designed when necessary. The sequences of the humanized VH and VL regions are shown in Table 11 and Table 12, respectively. The humanized VH and VL regions were fused to human IgG1 heavy chain and kappa light chain constant regions, respectively, to generate humanized mAbs. Constructs corresponding to the mAb sequences were used for transient transfection in HEK 293 cells and the supernatants were analyzed for the affinity of each humanized mAb for apelin.
(SPR reads the build-up and loss of mass on a sensor chip optically.)

A further assay concerns the target T3, APL17-Biotin.
T3 peptide: KFRRQRPRLSHKGPMPF-biotin
Nature of the assay: ELISA, peptide on neutravidin plate, mAb 200 ng/ml, A405. Here is the method:
(§1) FIGS. 1A-1C show binding of anti-apelin mAbs to various biotinylated apelin peptides measured by ELISA. Biotinylated apelin peptides were immobilized on ELISA plates coated with neutravidin and purified recombinant rabbit anti-apelin mAbs were added for binding to the peptides on the plates. The binding was detected by adding a goat anti-rabbit IgG Fc-conjugated to alkaline phosphatase and PNPP substrate, and measured as the absorbance at 405 nm.
(§2) For the binding assay, neutravidin in carbonate coating buffer was coated on high binding ELISA plates at 1 μg/ml overnight. Peptides were added at 4 μg/ml after the plates were blocked with 1% BSA in TBS. After incubation of the plates at room temperature for 60 minutes, the plates were washed and then purified recombinant rabbit antibodies were added at 200 ng/ml. Following rabbit antibody binding to the peptides on the plates at room temperature for 90 minutes, goat anti-rabbit IgG Fc-conjugated to alkaline phosphatase was added, and antibody-antigen binding was detected by adding PNPP substrate and reading absorbance of ELISA plates at 405 nm. Each mAb was assayed in duplicate.
In general terms: ELISA stands for enzyme-linked immunosorbent assay.

The target in the next assay is T4, Biotin-APL17.
T4 peptide: Biotin-KFRRQRPRLSHKGPMPF
Described as above. The protocol: as §1, §2

The target in assay [3] is T5, pyr-apelin-13-biotin (pE-RPRLSHKGPMPF-biotin) (N-terminal pyroglutamate (pE); C-terminal biotin).
T5 construct: also called pyrAPL13-Biotin
T5 peptide: ERPRLSHKGPMPF
Nature of the assay: SPR (Biacore), pyr-apelin-13-biotin on streptavidin chip. Here is the method: (§3) Anti-apelin mAbs at four different concentrations (12.5 nM, 25 nM, 50 nM and 100 nM) were captured on the chip surface. The on- and off-rate for antibody-antigen binding were measured, curve fitted and calculated.

Assay [4] deals with T6, apelin-13-biotin (…-biotin) (C-terminal biotin).
T6 construct: also called APL13-Biotin
Nature of the assay: SPR (Biacore), apelin-13-biotin on streptavidin chip. Here is the method:
as §3

The target of assay [5] is T7, apelin peptide 1-7 (QRPRLSH).
T7 peptide: QRPRLSH
Nature of the assay: competition ELISA, captured mAb, peptide competes with apelin-13-biotin, A405.

Assay [6] deals with T8, apelin peptide 1-6 (QRPRLS).
T8 peptide: QRPRLS
The assay is described as above.

The target in assay [7] is T9, apelin peptide 1-10 (QRPRLSHKGP).
T9 peptide: QRPRLSHKGP
Described as above.

For assay [8], the target named is T10, apelin peptide 2-13 (RPRLSHKGPMPF).
T10 peptide: RPRLSHKGPMPF
The description is as above.

Assay [9] concerns the target T11, 1-4.
T11 construct: also called apelin peptide 1-4 (QRPR)
T11 peptide: QRPR
The assay is described as above.

Assay [10] addresses T12, apelin peptide 1-9 (QRPRLSHKG).
T12 peptide: QRPRLSHKG
The assay is described as above.

Assay [11] concerns the target T13, apelin peptide 1-11 (QRPRLSHKGPM).
T13 peptide: QRPRLSHKGPM
The assay is described as above.

In assay [12] the target is T14, apelin peptide 1-5 (QRPRL).
T14 peptide: QRPRL
Described as above.

Assay [13] deals with T15, apelin 17 (competition peptide 1-17, KFRRQRPRLSHKGPMPF).
T15 peptide: KFRRQRPRLSHKGPMPF
The description is as above.

Assay [14] addresses T16, apelin peptide 1-12 (QRPRLSHKGPMP).
T16 peptide: QRPRLSHKGPMP
Described as above.

Assay [15] has as its target T17, apelin peptide 1-8 (QRPRLSHK).
T17 peptide: QRPRLSHK
The description is as above.

Assay [16] has as its target T18, alanine scanning peptide 4A (QRPAL).
T18 peptide: QRPAL
The description is as above. Here is the method: (§4) Each peptide or control sample was assayed in duplicate for a given mAb.

Assay [17] has as its target T19, alanine scanning peptide 1A (ARPRL).
T19 peptide: ARPRL
The description is as above. Here is the method: as §4

Assay [18] deals with T20, alanine scanning peptide 3A (QRARL).
T20 peptide: QRARL
Described as above. The protocol:
as §4

Assay [19] concerns the target T21, alanine scanning peptide 2A (QAPRL).
T21 peptide: QAPRL
The description is as above. The protocol: as §4

The target of assay [20] is T22, alanine scanning peptide 5A (QRPRA).
T22 peptide: QRPRA
The description is as above. Here is the method:
as §4

Assay [21] concerns the target T7, apelin peptide 1-7 (QRPRLSH). Described as above.
For assay [22], the target named is T8, apelin peptide 1-6 (QRPRLS). The assay is described as above.
Assay [23] has as its target T9, apelin peptide 1-10 (QRPRLSHKGP). Described as above.
Assay [24] has as its target T10, apelin peptide 2-13 (RPRLSHKGPMPF). The description is as above.
The target of assay [25] is T11, 1-4. Described as above.
Assay [26] addresses T12, apelin peptide 1-9 (QRPRLSHKG). The assay is described as above.
For assay [27], the target named is T13, apelin peptide 1-11 (QRPRLSHKGPM). Described as above.
Assay [28] has as its target T14, apelin peptide 1-5 (QRPRL). Described as above.
For assay [29], the target named is T15, apelin 17 (competition peptide 1-17, …). Described as above.
The target of assay [30] is T16, apelin peptide 1-12 (QRPRLSHKGPMP). The assay is described as above.
Assay [31] has as its target T17, apelin peptide 1-8 (QRPRLSHK). The assay is described as above.

Results on 3 molecules are retold here after US20200362021A1 (PHANES THERAPEUTICS, published 2020).

Positions count from the first letter of the chain named. Read-outs that look alike come from different tables or passages of the source. No end group written: not given here. *: point of attachment. Biotin = O=C1N[C@H]2[C@H](CS[C@H]2CCCCC(=O)*)N1

B1: humanized anti-apelin mAb A31 (human IgG1 backbone) (antibody, V domains shown)
VH: QSLEESGGGLVQPGGSLRLSCAVSGIDLYSNRMSWVRQAPGKGLEWVGSIGSSPWYASWAQGRFTISRDNSNTVYLQMNSLTAEDTATYFCAKGGYRPGASVWGQGTLVTVSS
VL: DIQLTQSPSSLSASVGDRVTITCQSSQSIYDNNDLAWYQQKPGKTPKRLIYLASSLDSGVPSRFSGSGSGTDFTLTISSLQPEDVATYYCAGGYSGDIYTFGGGTKVEIK
notes: humanized from C8; tested as HEK293 supernatant
As a reminder, the IC50 is the midpoint of a concentration-inhibition curve. High values mean weaker potency in that assay, low ones greater potency in that assay. By Kd is commonly meant the constant that tells how readily two partners part at equilibrium. As for B1, the 50% inhibitory concentration (IC50) was determined as 25000 pM in assay [1] and 19900 pM with pyro-apelin 13. In assay [2], this molecule displayed a Kd of 0.148 pM.

B2: anti-apelin mAb C1 (antibody, V domains shown)
VH: QSLEESGGRLVTPGGSLTLTCTVSGFSLSSYAMDWVRQAPGKGLEWIGVIAPNGATYYPTWARGRFTISKTSTTVDLKMTSLTAADTATYFCATYPIDAGANIWGPGTLVTVSS
VL: DPVLTQTPSSVSAAVGGTVTIGCQSSESVDNNNQLSWYQQKSGQPPKRLMYYVSTLDSGVPSRFKGSGSGTHFTLTISGVQCYDAATYYCQGGYISNLYPFGGGTEVVVK
notes: recombinant rabbit IgG made in HEK293 cells
B2: the binding result with APL17-Biotin is listed as “no binding (tested: 200 ng/ml)”; with Biotin-APL17 it was “no binding (tested: 200 ng/ml)”; in [5], “binds”; in assay [6], “binds”; in assay [7] it was “binds”; in [8] it was “no binding (tested: peptide concentration not stated)”. For the same molecule, the binding result with 1-4 [9] is “no binding (tested: peptide concentration not stated)”; in assay [10], “binds”; in assay [11] it was “binds”; in [12], “binds”; in assay [13] it was “no binding (tested: peptide concentration not stated)”; in assay [14], “binds”. Further, the binding result in [15] was “binds”. Also, the Kd in assay [3] is 0.154 pM; in assay [4], 48.9 pM.

B3: anti-apelin mAb C6 (antibody, V domains shown)
VH: QSLEESGGRLVKPDETLTLTCTVSGIDLSNYAMDWVRQAPGKGLEWIGVIAPNRRTYYPTWARGRFTISKTSSTTVDLKMTSLTTEDTATYFCATYPIEPGANIWGPGTLVTVSS
VL: B2 VL with S10P, A14P, N31Y, S42P, H72Q, G79D, V80L, Q81E, Y83D, L98I
notes: as for B2
In the case of B3, the binding result with APL17-Biotin was “no binding (tested: 200 ng/ml)”; in the assay with Biotin-APL17 it was “no binding (tested: 200 ng/ml)”; in assay [16], “no binding (tested: peptide concentration not stated)”; in assay [17], “no binding (tested: peptide concentration not stated)”; in assay [18], “no binding (tested: peptide concentration not stated)”; in assay [19] it was “no binding (tested: peptide concentration not stated)”. Besides, the binding result is reported as “no binding (tested: peptide concentration not stated)” in [20]; “binds” in assay [21]; “binds” in assay [22]; “binds” in assay [23]; “no binding (tested: peptide concentration not stated)” in [24]; “no binding (tested: peptide concentration not stated)” in the assay with 1-4 [25]. For the same molecule, the binding result in assay [26] is “binds”; in assay [27], “binds”; in assay [28], “binds”; in assay [29], “no binding (tested: peptide concentration not stated)”; in assay [30] it was “binds”; in assay [31], “binds”. Further, the Kd was 0.513 pM in [3] and 5.96 pM in [4].
